Assay results as given in patent US20240317865A1, “ANTIBODIES AGAINST INTEGRIN ALPHA 11 BETA 1” (MOMENTA PHARMACEUTICALS, INC., priority 2020, published 2024).
Entries after “also recorded” stand apart in the source; their conditions may differ.

Experiments:
[1] = biological target: T1, α11β1 I Domain (Homo sapiens, UniProt Q9UKX5); assay: ELISA binding to in-house generated α11β1 I domain; design: An in-house generated I domain of α11β1 was used; made in house; conditions: in words
T1 sequence (Q9UKX5 164-345 limits assumed): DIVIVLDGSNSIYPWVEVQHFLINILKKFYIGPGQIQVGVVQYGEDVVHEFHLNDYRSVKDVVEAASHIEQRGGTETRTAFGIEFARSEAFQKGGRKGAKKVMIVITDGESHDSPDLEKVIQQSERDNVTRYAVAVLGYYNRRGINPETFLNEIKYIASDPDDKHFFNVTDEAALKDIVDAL
Protocol: 0.25 μg/mL of target antigen (recombinant human or mouse α11β1) was plated in a 96-well plate over night at 4° C. Plates were washed (PBS with 0.1% Tween-20), blocked (PBS with 2% BSA and 0.05% Tween-20) for 1 hour at room temperature and incubated with a range of antibody concentrations for 1 hour at room temperature. Subsequently, plates were washed and incubated with biotinylated anti-rabbit/mouse/human IgG in a 1:1000 dilution buffer and incubated for 1 hour at room temperature. After washing the plates, Streptavidin HRP was added at 1:200 in dilution buffer and incubated for 1 hour at room temperature. Ultra TMB ELISA substrate solution was added and the plates incubated for 5 minutes on a plate shaker. The reaction was stopped by adding stop solution to each well and plates were read at 450 nm.
Data was also collected to determine whether antibodies of interest bind to the I domain of α11β1. An in-house generated I domain of α11β1 was used. […] Mouse antibodies 10-F23, 10-L15, 7-O8, 6-A12, 9-G05 and 9-E16 and rabbit antibodies 7-H12 and 2-D3 were also tested for binding against the in-house generated α11β1 I domain. FIGS. 3A and 3B show graphs illustrating binding data from exemplary mAbs.

[2] = system: CHO-K1 human α11-mediated rat tail type I collagen gel contraction; assay: Collagen gel contraction assay; format: cell-based; conditions: compared to untreated condition
Protocol: 24-well plates were blocked with 2% BSA in PBS overnight at 37° C. The following day, the plates were washed 3 times with PBS before being used in the assay. Human CHO cell lines expressing α11 were harvested and resuspended at 1.25×10^6 in ExpiCHO Expression Medium (Gibco™ Cat #A2910002). The collagen gel solution was prepared by diluting 3 mg/mL stock collagen type I (Gibco™ Collagen I Rat Protein, Tail Cat #A1048301) to 1 mg/mL in the media containing the CHO cells. Sodium hydroxide was added to the solution to neutralize the pH and 400 μL of the collagen solution was added to each well of the 24-well plates. For the wells where the antibodies were included in the collagen gel solution, CHO cells were prepared at 2.5×10^6 and the antibodies were prepared at 2× final concentration in ExpiCHO media. The cells and antibodies were then combined 1:1 before the addition of the stock collagen type 1. The gels were allowed to polymerize for 60 minutes at 37° C. Antibodies were added to the ExpiCHO media, which was then layered on top of the polymerized gel (400 μL/well). The gels were incubated for 6 days at 37° C. before gel contraction was quantified. Images of each well were analyzed using Image J and gel contraction was determined as a percentage of the initial gel area.
Selected exemplary antibodies were tested for the ability to inhibit cell-mediated 3D gel contraction because this ability is directly linked to the functionality of the exemplary antibodies.

[3] = biological target: T2, adhesion of CHO-K1 cells expressing human α11 to rat tail type I collagen (Homo sapiens, UniProt Q9UKX5); assay: Cell adhesion inhibition (CHO-K1 hu α11 cells to type I collagen, xCelligence); format: cell-based; conditions: in words
T2 construct: expressed in transfected cells; host or cells: CHO-K1
T2 sequence (Q9UKX5 23-1188): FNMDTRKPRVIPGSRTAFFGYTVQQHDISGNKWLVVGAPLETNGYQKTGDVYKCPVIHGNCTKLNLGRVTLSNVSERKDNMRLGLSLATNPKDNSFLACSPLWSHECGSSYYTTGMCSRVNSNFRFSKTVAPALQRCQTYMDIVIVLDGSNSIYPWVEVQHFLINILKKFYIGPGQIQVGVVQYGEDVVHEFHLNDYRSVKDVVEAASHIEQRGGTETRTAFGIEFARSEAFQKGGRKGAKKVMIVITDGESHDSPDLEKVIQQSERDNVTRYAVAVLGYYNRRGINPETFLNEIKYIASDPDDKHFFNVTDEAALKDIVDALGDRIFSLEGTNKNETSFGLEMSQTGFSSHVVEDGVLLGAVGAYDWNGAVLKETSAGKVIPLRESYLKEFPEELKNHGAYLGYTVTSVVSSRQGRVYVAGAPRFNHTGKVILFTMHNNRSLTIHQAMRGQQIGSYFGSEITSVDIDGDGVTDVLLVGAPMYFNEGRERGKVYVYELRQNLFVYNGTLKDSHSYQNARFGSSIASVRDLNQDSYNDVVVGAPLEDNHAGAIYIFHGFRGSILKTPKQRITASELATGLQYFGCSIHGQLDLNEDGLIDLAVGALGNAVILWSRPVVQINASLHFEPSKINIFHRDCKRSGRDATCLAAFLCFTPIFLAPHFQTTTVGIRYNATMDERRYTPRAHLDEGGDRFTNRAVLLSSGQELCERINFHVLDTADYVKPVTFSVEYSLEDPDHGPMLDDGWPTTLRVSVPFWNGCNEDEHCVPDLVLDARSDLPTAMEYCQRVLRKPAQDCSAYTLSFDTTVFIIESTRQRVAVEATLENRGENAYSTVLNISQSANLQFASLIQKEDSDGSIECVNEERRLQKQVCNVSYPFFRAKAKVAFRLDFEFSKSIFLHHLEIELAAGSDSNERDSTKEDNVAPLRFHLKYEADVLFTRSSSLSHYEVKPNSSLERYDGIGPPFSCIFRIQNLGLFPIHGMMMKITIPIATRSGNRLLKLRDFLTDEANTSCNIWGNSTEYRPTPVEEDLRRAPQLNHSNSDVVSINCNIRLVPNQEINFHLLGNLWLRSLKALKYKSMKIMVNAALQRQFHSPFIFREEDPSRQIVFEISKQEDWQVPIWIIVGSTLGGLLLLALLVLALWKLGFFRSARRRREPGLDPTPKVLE
Protocol: 0.6×10^6 cells/mL were incubated with each antibody at a range of concentrations for 20 minutes at 37° C. E-Plate VIEW 96 PET plate coated with 100 ng/ml type I collagen or PBS overnight at room temperature was blocked in 3% BSA for 1 house at room temperature. After washing the plate with PBS, cell and antibody mixture was added to the wells and the plate was places into an xCelligence machine. Cell adhesion was recorded over 6 hours. The time point of maximum cell adhesion was used for comparison relative to control.
A CHO-K1 hu α11 cell line was used to assess the ability of mAbs to block α11β1-mediated binding to type I collagen. […] In the “Untreated” condition, cells were plated on type I collagen but no antibody was added and in the “Uncoated” condition, cells were seeded onto BSA-coated wells containing no type I collagen. Statistics were performed using one-way ANOVA followed by Dunnett's multiple comparisons test. […] Therefore, it is possible that these mAbs bind on an α11β1 domain that keeps the integrin in a low or intermediate affinity state. […] Nine human mAbs were also tested for their ability to inhibit the binding of human CHO-α11 cells to type I collagen.

B1: 24E4G6: rat anti-α11β1 mAb; VH SEQ ID NO: 147, VL SEQ ID NO: 148 (antibody, V domains shown)
VH: MELELSLIFIFSLLKDVQCEVQLVESGGSLVQPGGSLKLSCVASGYTFSNYWMDWVRQSPGKSLEWIGEINTDGRRTNYAPSIKDRFTISRDNAKSTLYLQMSNVKSDDTAIYYCTILRVYPHYFDYWGQGVMVTVSS
VL: MMSPAQFLFLLMLWIQEARGDVVMTQTPPSLSVAIGQSVSISCKSSQSLVYSDGETYLHWFLQSPGRSPKRLIYHVSNLGSGVPDRFSGTGSLTDFTLRISRVEAEDLGVYYCAQTTHFPPTFGAGTKLELK
[1]
  Binding to the I domain of α11β1: did not bind to the I-domain

B2: 8-I14: mouse anti-α11β1 mAb; VH SEQ ID NO: 109, VL SEQ ID NO: 110 (antibody, V domains shown)
VH: EVQLQQSGPELVKPGASVKKSCKASGYTFTDYYMHWVKQKPGQGLEWIGKIYPGSGNTHYNEKFKGKATLTADKSSSTAYMQLSSLTSEDSAVYFCATNYYGYRAMNYWGQGSSVTVSS
VL: DIHLTQSPSSLSASLGERISLTCRASQDIYISLNWFQQKPDGTIKLLIYGTSSLDSGVPKRFSGSRSGSDYSLTISSLESEDFADYYCLQYASSPYTFGGGTKLEIK
[2]
  Inhibition of CHO-hu α11-mediated collagen gel contraction: inhibited

B3: 9-E16: mouse anti-α11β1 mAb; VH SEQ ID NO: 111, VL SEQ ID NO: 112 (antibody, V domains shown)
VH: EVQLQQSGPELVKPGASVKISCKASGYTFTDYYMHWVKQKPGQGLEWIGEIYPGSGNPYYNEKFKGKATLTADKSSSSAYMQLSSLTSEDSAVYFCARTSYGRVGTGFAYWGQGTLVTVSA
VL: NFVMTQTPLSLPVSLGDQASISCRSSQSLLHSNGNTYLHWYLQKPGQSPKLLIYKVSNRFSGVPDRFSGSGSGTDFTLKINRVETEDLGIYFCSQSSHVPTFGAGTKLELK
[2]
  Inhibition of CHO-hu α11-mediated collagen gel contraction: inhibited
[1]
  Binding to the I domain of α11β1: I-domain binders; also recorded: bound the I domain
[3]
  Inhibition of cell adhesion to type I collagen: decrease cell adhesion to collagen

B4: 8H8E9: rat anti-α11β1 mAb; VH SEQ ID NO: 149, VL SEQ ID NO: 150 (antibody, V domains shown)
VH: MAVLVLLLCLVTFPSCALSQVQLKESGPGLVQPSQTLSLTCTVSGFSLTSNSVSWVRQAPGKGLEWMGAIWSGGSTDYNSALKSRLSISRDTSKSQVFLKMNSLQTEDTAIYFCTRSHWEPFDYWGQGVMVTVSS
VL: MESQTQALISLLLWVYGTCGDIVMTQSPFSLAVSEGEMVTINCKSSQGLLSSGNQKNYLAWYQQRPGQSPKLLIYYASTRQSGVPDRFIGGGSGTDFTLTISDVQAEDLADYYCLQHYSYPPTFGSGTKLEIK
[1]
  Binding to the I domain of α11β1: medium

B5: 6E5C11: rat anti-α11β1 mAb; VH SEQ ID NO: 151, VL SEQ ID NO: 152 (antibody, V domains shown)
VH: MAVLVLLLCLVTFPSCALSQVQLRESGPGLVQPSQTLSLTCTVSGFSLTSNSVTWVRQPPGKGLEWMGAIWSDGSTDYNSTLKSRLSISRDTSKSQVFLKMSSLQTEDTAIYFCTRSHWEPFDYWGQGVMVTVSS
VL: MESQTQALISLLLWVYGTCGDIVMTQSPLSLAVSEGETVTMNCKSSQSLFSSGNQKNYLAWYQQKPGQSPKLLIYYASTRQSGVPDRFIGSGSGTDFTLTISDVQTEDLADYYCLQHYNYPPTFGSGTKLEIK
[1]
  Binding to the I domain of α11β1: low

B6: 1994_01_D12: fully human anti-α11β1 mAb from phage display; HCDR3 SEQ ID NO: 267, LCDR3 SEQ ID NO: 334 (antibody, V domains shown)
VH: QVQLVQSGAEVKKPGSSVKVSCKASGYTFTSYGISWVRQAPGQGLEWMGWISAYNGNTNYAQKLQGRVTMTTNTSTSTAYMELRSLRSDDTAVYYCARVTGITGTTIDPWGQGTLVTVSS
VL: DIQMTQSPSSLSASVGDRVTITCRASQSISSYLNWYRQKPGKAPKLLIYAASSLQSGVPSRFSGSGSGTDFTLTISSLQPEDAATYYCQQYDSQSGTFGQGTKLEIK
[2]
  Inhibition of CHO-hu α11-mediated collagen gel contraction: inhibited
